{
  "source": "the DeepSol protein solubility set",
  "data": [
    {"experiment": "soluble on expression in E. coli; label from the status in PepcDB or PDB records", "values": [
      {"sequence": "MTQLCSDVRVSPLPGTAKVGDTYILFEHHGPWSHDILDGGTFDKETSAALKAMGCGFYLIRRHGREGRIERPKKTAYLVFGSAGIAEKLMVDDVTDLLKLDVSGPGKNRQFGAEQEAQPIILVCTHAKRDACCAIKGRPMAQALTEEFPDSPVWECSHTKGHRFAPSMVLMPWGYTWGQLNKPAAFDMYRYAQRGQLFLPGNRGRGIWPMKGQIAEVAVAQQLAQEGETVTLGQLRVESIEEAQAHVADSHTARTWTVFLREEVVAGIVDSCHKPPKTGTAWVADRVKENGALEHHHHHH", "soluble on expression in E. coli": "soluble"},
      {"sequence": "MTQPEAVFFDCDGTLVDSEVICSRAYVHMFQEFGITLDLAEIFKRFKGVKLYEIIDTINAEYGVNLQKATLEPIYRAEVARLFDSELEVIPGAQALLDAVSVPMCVVSNGPVSKMQHSLGRTGLLRHFTDRLYSGYDIQRWKPDPALMFHAAEAMQVKAENCILVDDSSAGAQSGIAAGMEVFYFCADPHNQPIDHPKVTTFTDLAELPALWQARGWDITR", "soluble on expression in E. coli": "not soluble"},
      {"sequence": "MTQTYNADAIEVLTGLEPVRRRPGMYTDTTRPNHLGQEVIDNSVDEALAGHAKRVDVILHADQSLEVIDDGRGMPVDIHPEEGVPAVELILCRLHAGGKFSNKNYQFSGGLHGVGISVVNALSKRVEVNVRRDGQVYNIAFENGEKVQDLQVVGTCGKRNTGTSVHFWPDETFFDSPRFSVSRLTHVLKAKAVLCPGVEITFKDEINNTEQRWCYQDGLNDYLAEAVNGLPTLPEKPFIGNFAGDTEAVDWALLWLPEGGELLTESYVNLIPTMQGGTHVNGLRQGLLDAMREFCEYRNILPRGVKLSAEDIWDRCAYVLSVKMQDPQFAGQTKERLSSRQCAAFVSGVVKDAFILWLNQNVQAAELLAEMAISSAQRRMRAAKKVVRKK", "soluble on expression in E. coli": "soluble"},
      {"sequence": "MTQVPPSASPADLLAVLERIATALERQGAPAVPANSLDGADAFVWHAAESWLEPVCRVNRVDIALLQGIERQRQTLYDNTLRFAHGLPANNALLWGARGTGKSSLVKAVHASVNQALTAKGAAPVALVEIHREDIPTLPRLLRILAASGRPCLLFCDDLSFDGNDSSYKSLKAVLEGGIEGRPDTVIFYATSNRRHLLAREMVENEQSTALHAGEAVEEKVSLSDRFGLWLGFHNVDQPTYFDIVDGYARAYGLDIETEDLHREAREWSMARGSRSGRTAWQFIQDLAGRLGKTLELEHHHHHH", "soluble on expression in E. coli": "soluble"},
      {"sequence": "MTQYQALIIGFGKAGKTLAATLAKTGWRVAIIEQSASMFGGTCINIGCIPTKTLVHDAEREGDFSVAMQRKAAVVNFLRDKNFHNLADLDNVDVIEGRAEFIDNHTLRVFQADGERVLRGEKIFINTGAESVIPAITGLTTTAGVFDSTGLLSLSQRPARLGILGGGYIGLEFASMFANFGTKVTIFEAAPQFLPREDRDIAQAITRILQEKGVELILNANVQAVSSKEGAVQVETPEGAHLVDALLVASGRKPATAGLQLQNAGVAVNERGGIIVDDYLRTTADNIWAMGDVTGGLQFTYISLDDFRIVRDGLLGDGKRSTRDRQNVPYSVFMTPPLSRVGLTEEQARASGATVQVVTLPVAAIPRARVMNDTRGVLKAVVDVNTQRIVGVSLLCVDSHEMINIVKTVMDADLPYTVLRDQIFTHPTMSESLNDLFSLIK", "soluble on expression in E. coli": "not soluble"},
      {"sequence": "MTRAERKRQHINHALSIGQKRETGLDDITFVHVSLPDLALEQVDISTKIGELSSSSPIFINAMTGGGGKLTYEINKSLARAASQAGIPLAVGSQMSALKDPSERLSYEIVRKENPNGLIFANLGSEATAAQAKEAVEMIGANALQIHLNVIQEIVMPEGDRSFSGALKRIEQICSRVSVPVIVKEVGFGMSKASAGKLYEAGAAAVDIGGYGGTNFSKIENLRRQRQISFFNSWGISTAASLAEIRSEFPASTMIASGGLQDALDVAKAIALGASCTGMAGHFLKALTDSGEEGLLEEIQLILEELKLIMTVLGARTIADLQKAPLVIKGETHHWLTERGVNTSSYSVR", "soluble on expression in E. coli": "soluble"},
      {"sequence": "MTRHGKNSTAASVYTYHERRRDAKASGYGTLHARLGADSIKEFHCCSLTLQPCRNPVISPTGYIFDREAILENILAQKKAYAKKLKEYEKQVAEESAAAKIAEGQAETFTKRTQFSAIESTPSRTGAVATPRPEVGSLKRQGGVMSTEIAAKVKAHGEEGVMSNMKGDKSTSLPSFWIPELNPTAVATKLEKPSSKVLCPVSGKPIKLKELLEVKFTPMPGTETAAHRKFLCPVTRDELTNTTRCAYLKKSKSVVKYDVVEKLIKGDGIDPINGEPMSEDDIIELQRGGTGYSATNETKAKLIRPQLELQ", "soluble on expression in E. coli": "soluble"},
      {"sequence": "MTRRVLLLSASVLLATAGYAPEPYYNKYGGYHKALDKKHGGYEADQTGYGGHNGMSDYGNEQGAYGHYDGKYGEAGKKSGQEYYAKGDEHGHGDEAHEKGLKKNGDAYGGKKFSYFTSGSGPYGSYQKGYYGSDGYEHDDHKSKYSSHNEDNGFKKGYDGAGAGHDDKYTSYDKEDAGHKKHHDKYDIGKYGAKQGGYAKQGHEEGWKNEAQKNSYGSRENGQEYGHPYY", "soluble on expression in E. coli": "not soluble"},
      {"sequence": "MTRSRLKIDRHGKEEDAMDLIDTHQHLILRGKLGYAWTRGEPSLAGSFTRADYAALVEGSGVIGTIFMETGVDDGDYRAEARLVAGMVGEGTLPMFGQIASCRPETDQGFDAWLEECRHLKVVGFRRILQVMPDDTSRAENYRRNVRKIGKAGWPVDLCFHSRQLAIAAELVRACPDVRFMLDHCGTPDIAGNDFPAWSERMADLASLPNLFVKLSGVTAYCAPGQVTLESVRPYVETVLKLFGPARMVWGGDWPVVDLGSGLPEWIAMTREFLSTLSPDEQASIGHGNARRFYLATLEHHHHHH", "soluble on expression in E. coli": "not soluble"},
      {"sequence": "MTRTPFSRRRFLQLSGGLALAGVSLPLWAHDMADMAGGDAHPALRLPEPYKIKLAINKSAVCLAPVAVAEQQKIFSKYNLDVEFVNFGNSTDVLLEAIATGKADAGVGMALRWLKALEQGFDVKLTAGTHGGCLNLLTAKDSPFGGLESLKGQTIGVTDMAGPDKNFFAILLKRHGIDPISDVQWKVYPADLLSVALDKREIAAISGSEPFSYRLLETGKYQLIASNMTGDYANLSCCVLGVSGSLARDHKPAAAALTQAILEAHSYAAAHPESVAQSFLAHALNTSEAEVSGILHGQGHGHHAVGEAFVKELTQYAVDLQRVQVIKPGTDPHQFAESIYANVFA", "soluble on expression in E. coli": "not soluble"},
      {"sequence": "MTRYLDISLGIVRDYYEAAPVKVVFVKDHPRLPTPGGIINARRGDEVELPRWQARMLREKGYVEYKEKIVDIDYVNLVHYHEVKKSAANSLLGVPSDFYLRVKELVEDLDRRIRENPGYMLFQDRENVERAIMQISERRLVKMMRLVLSGGGEEVRERLTVEENLVYSMAEEVVKGWKEYVKSLVGRR", "soluble on expression in E. coli": "not soluble"},
      {"sequence": "MTSITVQLRSGLDGVYFALKQMSGLRAKLLLVGNENPVPTVLPASQRGTPFPGGNTMTQASLIRLSELNNDAQYNLNDTSMYNPVGAAAYGVNGDKIGTVRDALVEPETGRIRYFLVDVGGWFSSKEVLVPVGYGRVDDSGVYFDSLTKDQVKDMSEYRADQAYSSEMMDTDERVLRGNQSQEEYHQRAYQTPDRLQLLEERLVVNKDRFKAGSVQIGKRIETRQETVSVPLQREEVVIERHAVTDGRAVEGAVLGEGHQTMSVDLEAERANISKQAYVTEEVSVGKRAVTETQQVTETVGREVLDVNQTGDVRTTEGTALTDDTTKRNILEHHHHHH", "soluble on expression in E. coli": "soluble"},
      {"sequence": "MTSKIALFDQTLIASLLQPLSLNQPDFKAYKTKVKLKISEQRNETSGEKELKFEISRSDDFEFLFSETLNNEKYQILARDHDLTVDFDAFPKVIIQHLLCKNIVKNLEEDGEVDARKKAGYHSIADPGKPTEINIILDAEKNFCSFELFSKTPISKGKIFSIKLHAVRGDHLISHLLKICSSQAVKLSTFYKSADELASLRQKCGDLEKQVEKLSGVKEEFEEMSEKFKELEDEVELVKEERENIRLLVEDKEDEVADLKQDTESLQKQLEENQEELEIVGNMLREEQGKVDQLQKRNVAHQKEIGKLRAELGTAQRNLEKADQLLKRNSQQQNQQSLDMRKLGELEADLKEKDSMVESLTETIGILRKELENEKLKAAENMDSFEKLSMENENLKEKIAHYRAQRFSPAPSGLPGLQTGLTNRLTPSFKPVLGPHTPYGANLNSRTPFRDNTTLNFQNSTIATPHAFRFNSQLIADETTGSSVTNTPPAQR", "soluble on expression in E. coli": "not soluble"},
      {"sequence": "MTSPVPRLIEQFERGLDAPICLTWELTYACNLACVHCLSSSGKRDPGELSTRQCKDIIDELERMQVFYVNIGGGEPTVRPDFWELVDYATAHHVGVKFSTNGVRITPEVATRLAATDYVDVQISLDGATAEVNDAIRGTGSFDMAVRALQNLAAAGFAGVKISVVITRRNVAQLDEFATLASRYGATLRITRLRPSGRGTDVWADLHPTADQQVQLYDWLVSKGERVLTGDSFFHLAPLGQSGALAGLNMCGAGRVVCLIDPVGDVYACPFAIHDHFLAGNVLSDGGFQNVWKNSSLFRELREPQSAGACGSCGHYDSCRGGCMAAKFFTGLPLDGPDPECVQGHSEPALARERHLPRPRADHSRGRRVSKPVPLTLSMRPPKRPCNESPV", "soluble on expression in E. coli": "not soluble"},
      {"sequence": "MTSRDQGINSELSNRTIQFKEKIHNGIHTEYITDQKHSNNKDREKKYRDGDKINGPQAHSLDITNERRFADNRTMFTQHIEKQRNVNTLNQNDINNSANNANVRENELTYQFQRWGQNHTVRILESSEGIRLKPSDTLVSDRLHEAQHNDVTAQRWVLTEQDERQGQRHQPHEEQENEGKFENDQKDES", "soluble on expression in E. coli": "soluble"},
      {"sequence": "MTSRRLEESMGAVQMGLVNMFKGFQSKVLPPLSPKVVTEEEVNRMLTPSEFLKEMSLTTEQRLAKTRLMCRPQIIELLDMGETTHQKFSGIDLDQALFQPFPSEIIFQNYTPCEVYEVPLILRNNDKIPRLVKVVEESSPYFKVISPKDIGHKVAPGVPSIFRILFTPEENKDYAHTLTCVTEREKFIVPIKARGARAILDFPDKLNFSTCPVKYSTQKILLVRNIGNKNAVFHIKTCRPFSIEPAIGTLNVGESMQLEVEFEPQSVGDHSGRLIVCYDTGEKVFVSLYGAAIDMNIRLDKNSLTIEKTYISMANQRTITIHNRSNIIAHFLWKVFATQQEEDREKYRACDDLIKEEKDETDEFFEECITDPLLREHLSVLSRTFANQRRLVQGDSKLFFNNVFTVEPLEGDVWPNSSAEITVYFNPLEAKLYQQTIYCDILGREIRLPLRIKGEGMGPKIHFNFELLDIGKVFTGSAHCYEAILYNKGSIDALFNMTPPTSALGACFVFSPKEGIIEPSGVQAIQISFSSIILGNFEEEFLVNVNGSPEPVKLTIRGCVIGPTFHFNVPALHFGDVSFGFPHTLICSLNNTSLIPMTYKLRIPGDGLGHKSISYCEQHVDYKRPSWTKEEISSMKPKEFTISPDCGTIRPQGFAAIRVTLCSNTVQKYELALVVDVEGIGEEVLALLITARYCSPACSSPESPPSLQ", "soluble on expression in E. coli": "soluble"},
      {"sequence": "MTSSNKLHEVDKDQQSAFDITGRYQTISAHPTKEFSKPTLAAGAVLWRHSSTITENPAVEFAVIHRPHYDDWSLAKGKVDPGESLPVTAEREIREETGHHVHLGKLLGKVSYPVGERTKVVYYWIAQVHDEAFEENNEVDELRWLPYTEARELLSYDVDRLVLDKAYKRLALPTTTRVILVRHAKAHQRHNWAGNDSIRPLEKKGQRQADLLGPMLAAYGPTSIHSATPARCQQTAAPLSELTGLEVVVDDRFDDEAWLSRMTVAQKACEELIATPGTHVVVSQGLFIPDAIAWLSAQGRLPLETIEAKKASAWVLSFHEGELTGADYLVSPLGVK", "soluble on expression in E. coli": "not soluble"},
      {"sequence": "MTSTGPETSETPGATTQRHGFGIDVGGSGIKGGIVDLDTGQLIGDRIKLLTPQPATPLAVAKTIAEVVNGFGWRGPLGVTYPGVVTHGVVRTAANVDKSWIGTNARDTIGAELGGQQVTILNDADAAGLAETRYGAGKNNPGLVVLLTFGTGIGSAVIHNGTLIPNTEFGHLEVGGKEAEERAASSVKEKNDWTYPKWAKQVIRVLIAIENAIWPDLFIAGGGISRKADKWVPLLENRTPVVPAALQNTAGIVGAAMASVADTTH", "soluble on expression in E. coli": "not soluble"}
    ]}
  ]
}
